{
  "source": "the supplement of paper PMC5998384",
  "key": {"[1]": {"test_system": "HeLa Kyoto", "assay": "solubility change mitosis vs G1/S (difference of NP-40 vs SDS log2 ratios) (log2 ratio difference); higher = more soluble in mitosis"}, "[2]": {"test_system": "HeLa Kyoto", "assay": "thermal stability score vs G1/S (z-score of summed log2 fold changes over temperatures); higher = more thermally stable than in G1/S"}, "[3]": {"test_system": "HeLa Kyoto", "assay": "solubility in G1/S (NP-40 vs SDS abundance) (log2 ratio); higher = more soluble", "conditions": "cell cycle stage: G1/S"}, "[4]": {"test_system": "HeLa Kyoto", "assay": "melting temperature (median over replicates), in situ; higher = more thermally stable"}, "[5]": {"conditions": "cell cycle stage: early G1 (4.5 h after nocodazole release)"}},
  "data": [
    {"substance": "MVPGEENQLVPKEDVFWRCRQNIFDEMKKKFLQIENAAEEPRVLCIIQDTTNSKTVNERITLNLPASTPVRKLFEDVANKVGYINGTFDLVWGNGINTADMAPLDHTSDKSLLDANFEPGKKNFLHLTDKDGEQPQILLEDSSAGEDSVHDRFIGPLPREGSGGSTSDYVSQSYSYSSILNKSETGYVGLVNQAMTCYLNSLLQTLFMTPEFRNALYKWEFEESEEDPVTSIPYQLQRLFVLLQTSKKRAIETTDVTRSFGWDSSEAWQQHDVQELCRVMFDALEQKWKQTEQADLINELYQGKLKDYVRCLECGYEGWRIDTYLDIPLVIRPYGSSQAFASVEEALHAFIQPEILDGPNQYFCERCKKKCDARKGLRFLHFPYLLTLQLKRFDFDYTTMHRIKLNDRMTFPEELDMSTFIDVEDEKSPQTESCTDSGAENEGSCHSDQMSNDFSNDDGVDEGICLETNSGTEKISKSGLEKNSLIYELFSVMVHSGSAAGGHYYACIKSFSDEQWYSFNDQHVSRITQEDIKKTHGGSSGSRGYYSSAFASSTNAYMLIYRLKDPARNAKFLEVDEYPEHIKNLVQKERELEEQEKRQREIERNTCKIKLFCLHPTKQVMMENKLEVHKDKTLKEAVEMAYKMMDLEEVIPLDCCRLVKYDEFHDYLERSYEGEEDTPMGLLLGGVKSTYMFDLLLETRKPDQVFQSYKPGEVMVKVHVVDLKAESVAAPITVRAYLNQTVTEFKQLISKAIHLPAETMRIVLERCYNDLRLLSVSSKTLKAEGFFRSNKVFVESSETLDYQMAFADSHLWKLLDRHANTIRLFVLLPEQSPVSYSKRTAYQKAGGDSGNVDDDCERVKGPVGSLKSVEAILEESTEKLKSLSLQQQQDGDNGDSSKSTETSDFENIESPLNERDSSASVDNRELEQHIQTSDPENFQSEERSDSDVNNDRSTSSVDSDILSSSHSSDTLCNADNAQIPLANGLDSHSITSSRRTKANEGKKETWDTAEEDSGTDSEYDESGKSRGEMQYMYFKAEPYAADEGSGEGHKWLMVHVDKRITLAAFKQHLEPFVGVLSSHFKVFRVYASNQEFESVRLNETLSSFSDDNKITIRLGRALKKGEYRVKVYQLLVNEQEPCKFLLDAVFAKGMTVRQSKEELIPQLREQCGLELSIDRFRLRKKTWKNPGTVFLDYHIYEEDINISSNWEVFLEVLDGVEKMKSMSQLAVLSRRWKPSEMKLDPFQEVVLESSSVDELREKLSEISGIPLDDIEFAKGRGTFPCDISVLDIHQDLDWNPKVSTLNVWPLYICDDGAVIFYRDKTEELMELTDEQRNELMKKESSRLQKTGHRVTYSPRKEKALKIYLDGAPNKDLTQD [USP47]", "values": [
      {"measurement": "solubility change mitosis (log2)", "setting": "[1]", "value": -0.168},
      {"measurement": "thermal stability score", "setting": "[2]; [5]", "value": 0.111},
      {"measurement": "thermal stability score", "setting": "[2]; cell cycle stage: mitosis", "value": 0.427},
      {"measurement": "solubility in G1/S (log2)", "setting": "[3]", "value": -0.111},
      {"measurement": "melting temperature", "setting": "[4]; cell cycle stage: G1/S", "value": 49.6, "unit": "°C"},
      {"measurement": "melting temperature", "setting": "[4]; cell cycle stage: mitosis", "value": 49.7, "unit": "°C"}
    ]},
    {"substance": "MALWRGSAYAGFLALAVGCVFLLEPELPGSALRSLWSSLCLGPAPAPPGPVSPEGRLAAAWDALIVRPVRRWRRVAVGVNACVDVVLSGVKLLQALGLSPGNGKDHSILHSRNDLEEAFIHFMGKGAAAERFFSDKETFHDIAQVASEFPGAQHYVGGNAALIGQKFAANSDLKVLLCGPVGPKLHELLDDNVFVPPESLQEVDEFHLILEYQAGEEWGQLKAPHANRFIFSHDLSNGAMNMLEVFVSSLEEFQPDLVVLSGLHMMEGQSKELQRKRLLEVVTSISDIPTGIPVHLELASMTNRELMSSIVHQQVFPAVTSLGLNEQELLFLTQSASGPHSSLSSWNGVPDVGMVSDILFWILKEHGRSKSRASDLTRIHFHTLVYHILATVDGHWANQLAAVAAGARVAGTQACATETIDTSRVSLRAPQEFMTSHSEAGSRIVLNPNKPVVEWHREGISFHFTPVLVCKDPIRTVGLGDAISAEGLFYSEVHPHY [ADPGK]", "values": [
      {"measurement": "solubility change mitosis (log2)", "setting": "[1]", "value": -0.191},
      {"measurement": "thermal stability score", "setting": "[2]; [5]", "value": 1.05},
      {"measurement": "thermal stability score", "setting": "[2]; cell cycle stage: mitosis", "value": -1.45},
      {"measurement": "solubility in G1/S (log2)", "setting": "[3]", "value": -0.0136},
      {"measurement": "melting temperature", "setting": "[4]; cell cycle stage: G1/S", "value": 55.3, "unit": "°C"},
      {"measurement": "melting temperature", "setting": "[4]; cell cycle stage: mitosis", "value": 55.4, "unit": "°C"}
    ]},
    {"substance": "MAGGGAGDPGLGAAAAPAPETREHLFKVLVIGELGVGKTSIIKRYVHQLFSQHYRATIGVDFALKVLNWDSRTLVRLQLWDIAGQERFGNMTRVYYKEAVGAFVVFDISRSSTFEAVLKWKSDLDSKVHLPNGSPIPAVLLANKCDQNKDSSQSPSQVDQFCKEHGFAGWFETSAKDNINIEEAARFLVEKILVNHQSFPNEENDVDKIKLDQETLRAENKSQCC [RAB32]", "values": [
      {"measurement": "solubility change mitosis (log2)", "setting": "[1]", "value": -0.0818},
      {"measurement": "thermal stability score", "setting": "[2]; [5]", "value": 4.46},
      {"measurement": "thermal stability score", "setting": "[2]; cell cycle stage: mitosis", "value": 2.79},
      {"measurement": "solubility in G1/S (log2)", "setting": "[3]", "value": -0.00216},
      {"measurement": "melting temperature", "setting": "[4]; cell cycle stage: G1/S", "value": 51.8, "unit": "°C"},
      {"measurement": "melting temperature", "setting": "[4]; cell cycle stage: mitosis", "value": 53.4, "unit": "°C"}
    ]},
    {"substance": "ABCF1", "values": [
      {"measurement": "solubility change mitosis (log2)", "setting": "[1]", "value": 0.0453},
      {"measurement": "thermal stability score", "setting": "[2]; [5]", "value": -2.34},
      {"measurement": "thermal stability score", "setting": "[2]; cell cycle stage: mitosis", "value": -2.94},
      {"measurement": "solubility in G1/S (log2)", "setting": "[3]", "value": -0.133},
      {"measurement": "melting temperature", "setting": "[4]; cell cycle stage: G1/S", "value": 52.7, "unit": "°C"},
      {"measurement": "melting temperature", "setting": "[4]; cell cycle stage: mitosis", "value": 52.3, "unit": "°C"}
    ]},
    {"substance": "MYIKQVIIQGFRSYRDQTIVDPFSSKHNVIVGRNGSGKSNFFYAIQFVLSDEFSHLRPEQRLALLHEGTGPRVISAFVEIIFDNSDNRLPIDKEEVSLRRVIGAKKDQYFLDKKMVTKNDVMNLLESAGFSRSNPYYIVKQGKINQMATAPDSQRLKLLREVAGTRVYDERKEESISLMKETEGKREKINELLKYIEERLHTLEEEKEELAQYQKWDKMRRALEYTIYNQELNETRAKLDELSAKRETSGEKSRQLRDAQQDARDKMEDIERQVRELKTKISAMKEEKEQLSAERQEQIKQRTKLELKAKDLQDELAGNSEQRKRLLKERQKLLEKIEEKQKELAETEPKFNSVKEKEERGIARLAQATQERTDLYAKQGRGSQFTSKEERDKWIKKELKSLDQAINDKKRQIAAIHKDLEDTEANKEKNLEQYNKLDQDLNEVKARVEELDRKYYEVKNKKDELQSERNYLWREENAEQQALAAKREDLEKKQQLLRAATGKAILNGIDSINKVLDHFRRKGINQHVQNGYHGIVMNNFECEPAFYTCVEVTAGNRLFYHIVDSDEVSTKILMEFNKMNLPGEVTFLPLNKLDVRDTAYPETNDAIPMISKLRYNPRFDKAFKHVFGKTLICRSMEVSTQLARAFTMDCITLEGDQVSHRGALTGGYYDTRKSRLELQKDVRKAEEELGELEAKLNENLRRNIERINNEIDQLMNQMQQIETQQRKFKASRDSILSEMKMLKEKRQQSEKTFMPKQRSLQSLEASLHAMESTRESLKAELGTDLLSQLSLEDQKRVDALNDEIRQLQQENRQLLNERIKLEGIITRVETYLNENLRKRLDQVEQELNELRETEGGTVLTATTSELEAINKRVKDTMARSEDLDNSIDKTEAGIKELQKSMERWKNMEKEHMDAINHDTKELEKMTNRQGMLLKKKEECMKKIRELGSLPQEAFEKYQTLSLKQLFRKLEQCNTELKKYSHVNKKALDQFVNFSEQKEKLIKRQEELDRGYKSIMELMNVLELRKYEAIQLTFKQVSKNFSEVFQKLVPGGKATLVMKKGDVEGSQSQDEGEGSGESERGSGSQSSVPSVDQFTGVGIRVSFTGKQGEMREMQQLSGGQKSLVALALIFAIQKCDPAPFYLFDEIDQALDAQHRKAVSDMIMELAVHAQFITTTFRPELLESADKFYGVKFRNKVSHIDVITAEMAKDFVEDDTTHG [SMC3]", "values": [
      {"measurement": "solubility change mitosis (log2)", "setting": "[1]", "value": -0.0245},
      {"measurement": "thermal stability score", "setting": "[2]; [5]", "value": -0.978},
      {"measurement": "thermal stability score", "setting": "[2]; cell cycle stage: mitosis", "value": -1.78},
      {"measurement": "solubility in G1/S (log2)", "setting": "[3]", "value": -0.182},
      {"measurement": "melting temperature", "setting": "[4]; cell cycle stage: G1/S", "value": 52.6, "unit": "°C"},
      {"measurement": "melting temperature", "setting": "[4]; cell cycle stage: mitosis", "value": 51.5, "unit": "°C"}
    ]}
  ]
}
